Test results taken from patent publication US20220041691A1, “METHODS FOR DIAGNOSING OR TREATING POST-TRAUMATIC STRESS DISORDER, AND COMPOSITIONS THEREFOR” (Centre for Addiction and Mental Health, priority 2018, published 2022).
Where a chain is given by its changes, count along the chain named.

B1: GST-FKBP51_TPR (GST fusion of the tetratricopeptide repeat domain of FKBP51) (other)
chain: EMDTKEKLEQAAIVKEKGTVYFKGGKYMQAVIQYGKIVSWLEMEYGLSEKESKASESFLLAAFLNLAMCYLKLREYTKAVECCDKALGLDSANEKGLYRRGEAQLLMNEFESAKGDFEKVLEVNPQNKAARLQISMCQKKAKEHNERDRRIYANMFKKFAEQDAKEEANKAMGKKTSEGVTNEKGTDSQAMEEEKPEGHV
notes: also called GST-TPR; FKBP51 TPR domain; not shown: glutathione S-transferase (GST) tag; vector stated only for the GR fragments (pGEX-4T3)
B2: human FK506 Binding Protein 51 (FKBP51) (other)
chain: MTTDEGAKNNEESPTATVAEQGEDITSKKDRGVLKIVKRVGNGEETPMIGDKVYVHYKGKLSNGKKFDSSHDRNEPFVFSLGKGQVIKAWDIGVATMKKGEICHLLCKPEYAYGSAGSLPKIPSNATLFFEIELLDFKGEDLFEDGGIIRRTKRKGEGYSNPNEGATVEIHLEGRCGGRMFDCRDVAFTVGEGEDHDIPIGIDKALEKMQREEQCILYLGPRYGFGEAGKPKFGIEPNAELIYEVTLKSFEKAKESWEMDTKEKLEQAAIVKEKGTVYFKGGKYMQAVIQYGKIVSWLEMEYGLSEKESKASESFLLAAFLNLAMCYLKLREYTKAVECCDKALGLDSANEKGLYRRGEAQLLMNEFESAKGDFEKVLEVNPQNKAARLQISMCQKKAKEHNERDRRIYANMFKKFAEQDAKEEANKAMGKKTSEGVTNEKGTDSQAMEEEKPEGHV
notes: Endogenous protein in peripheral blood (lymphocyte) lysate of patients and controls
B3: human glucocorticoid receptor (GR) (receptor)
chain: MDSKESLTPGREENPSSVLAQERGDVMDFYKTLRGGATVKVSASSPSLAVASQSDSKQRRLLVDFPKGSVSNAQQPDLSKAVSLSMGLYMGETETKVMGNDLGFPQQGQISLSSGETDLKLLEESIANLNRSTSVPENPKSSASTAVSAAPTEKEFPKTHSDVSSEQQHLKGQTGTNGGNVKLYTTDQSTFDILQDLEFSSGSPGKETNESPWRSDLLIDENCLLSPLAGEDDSFLLEGNSNEDCKPLILPDTKPKIKDNGDLVLSSPSNVTLPQVKTEKEDFIELCTPGVIKQEKLGTVYCQASFPGANIIGNKMSAISVHGVSTSGGQMYHYDMNTASLSQQQDQKPIFNVIPPIPVGSENWNRCQGSGDDNLTSLGTLNFPGRTVFSNGYSSPSMRPDVSSPPSSSSTATTGPPPKLCLVCSDEASGCHYGVLTCGSCKVFFKRAVEGQHNYLCAGRNDCIIDKIRRKNCPACRYRKCLQAGMNLEARKTKKKIKGIQQATTGVSQETSENPGNKTIVPATLPQLTPTLVSLLEVIEPEVLYAGYDSSVPDSTWRIMTTLNMLGGRQVIAAVKWAKAIPGFRNLHLDDQMTLLQYSWMFLMAFALGWRSYRQSSANLLCFAPDLIINEQRMTLPCMYDQCKHMLYVSSELHRLQVSYEEYLCMKTLLLLSSVPKDGLKSQELFDEIRMTYIKELGKAIVKREGNSSQNWQRFYQLTKLLDSMHEVVENLLNYCFQTFLDKTMSIEFPEMLAEIITNQIPKYSNGNIKKLLFHQK
notes: as for B2

Key:
[1] = target: T1, Flag-tagged GR, wild-type (human, UniProt P04150 1-777); assay: SPR (Reichert SR7500DC, 25 C), FLAG-tagged GR captured on FLAG antibody-coated chip, GST-FKBP51_TPR injected
T1 construct: Expressed in HEK293(T) cells; also called Flag-GR; WT-GR; not shown: Flag tag
T1 sequence: B3 chain

[2] = target: T2, Flag-tagged GR S211A mutant (non-phosphorylated GR mutant) (human, UniProt P04150 1-777); assay: as above
T2 construct: also called S211A-GR; S211A GR; not shown: Flag tag
T2 sequence: B3 chain with S211A

[3] = target: T3, Flag-tagged GR S211E mutant (phosphomimetic GR mutant) (human, UniProt P04150 1-777); assay: as above
T3 construct: also called S211E-GR; S211E GR; not shown: Flag tag
T3 sequence: B3 chain with S211E

[4] = target: B3; assay: co-immunoprecipitation with anti-FKBP51 antibody from human peripheral blood protein, Western blot for GR
[5] = target: B2; assay: co-immunoprecipitation from human peripheral blood samples, densitometry, n=21
[6] = target: B2; assay: co-immunoprecipitation from human peripheral blood samples, densitometry, n=22

Question: For B1, which Kd [1] is on record?
Answer: 3.31 µM

Question: What about the Kd [2] of the same binder?
Answer: 0.412 µM

Question: What about the Kd [3] of the same binder?
Answer: 3.9 µM

Question: Does B2 bind [4]?
Answer: binds

Question: With B3 as the binder, how does the “GR-FKBP51 complex level, PTSD patients relative to trauma controls (Trauma = 1)” value [5] read?
Answer: 1.46 fold of control

Question: What about the “GR-FKBP51 complex level, PTSD patients relative to healthy controls (CTRL = 1)” value [6] of the same binder?
Answer: 1.41 fold of control
